The results in this text go back to patent publication US20070281326A1 (QUARK PHARMACEUTICALS, published 2007).

For experiment [1], the target named is T1, HA-SV5-full length hRTP801 (human, UniProt Q9NX09 1-232).
T1 construct: Expressed in 293T HEK cells; also called HA-full length hRTP801; HA-SV5-hRTP801; not shown: HA tag; SV5 tag
T1 sequence: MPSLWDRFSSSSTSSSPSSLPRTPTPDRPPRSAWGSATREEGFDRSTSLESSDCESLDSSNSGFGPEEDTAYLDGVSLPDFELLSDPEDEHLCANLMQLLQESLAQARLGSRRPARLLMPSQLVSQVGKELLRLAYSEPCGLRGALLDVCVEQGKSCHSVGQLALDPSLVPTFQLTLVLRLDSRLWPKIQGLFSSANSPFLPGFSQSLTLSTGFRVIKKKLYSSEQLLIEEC
Nature of the experiment: co-IP with M2 anti-FLAG resin from CoCl2-treated 293T HEK extract (FIG. 21).

Experiment [2] deals with T2, TSC2 (human, UniProt P49815 1-1807, limits assumed).
T2 construct: TSC2 without a stated tag, endogenous or expressed from transfected cDNA in 293T cell extracts; also called tuberin; endogenous TSC2
T2 sequence (P49815 other isoform, or with tags, fused parts or gaps limits assumed): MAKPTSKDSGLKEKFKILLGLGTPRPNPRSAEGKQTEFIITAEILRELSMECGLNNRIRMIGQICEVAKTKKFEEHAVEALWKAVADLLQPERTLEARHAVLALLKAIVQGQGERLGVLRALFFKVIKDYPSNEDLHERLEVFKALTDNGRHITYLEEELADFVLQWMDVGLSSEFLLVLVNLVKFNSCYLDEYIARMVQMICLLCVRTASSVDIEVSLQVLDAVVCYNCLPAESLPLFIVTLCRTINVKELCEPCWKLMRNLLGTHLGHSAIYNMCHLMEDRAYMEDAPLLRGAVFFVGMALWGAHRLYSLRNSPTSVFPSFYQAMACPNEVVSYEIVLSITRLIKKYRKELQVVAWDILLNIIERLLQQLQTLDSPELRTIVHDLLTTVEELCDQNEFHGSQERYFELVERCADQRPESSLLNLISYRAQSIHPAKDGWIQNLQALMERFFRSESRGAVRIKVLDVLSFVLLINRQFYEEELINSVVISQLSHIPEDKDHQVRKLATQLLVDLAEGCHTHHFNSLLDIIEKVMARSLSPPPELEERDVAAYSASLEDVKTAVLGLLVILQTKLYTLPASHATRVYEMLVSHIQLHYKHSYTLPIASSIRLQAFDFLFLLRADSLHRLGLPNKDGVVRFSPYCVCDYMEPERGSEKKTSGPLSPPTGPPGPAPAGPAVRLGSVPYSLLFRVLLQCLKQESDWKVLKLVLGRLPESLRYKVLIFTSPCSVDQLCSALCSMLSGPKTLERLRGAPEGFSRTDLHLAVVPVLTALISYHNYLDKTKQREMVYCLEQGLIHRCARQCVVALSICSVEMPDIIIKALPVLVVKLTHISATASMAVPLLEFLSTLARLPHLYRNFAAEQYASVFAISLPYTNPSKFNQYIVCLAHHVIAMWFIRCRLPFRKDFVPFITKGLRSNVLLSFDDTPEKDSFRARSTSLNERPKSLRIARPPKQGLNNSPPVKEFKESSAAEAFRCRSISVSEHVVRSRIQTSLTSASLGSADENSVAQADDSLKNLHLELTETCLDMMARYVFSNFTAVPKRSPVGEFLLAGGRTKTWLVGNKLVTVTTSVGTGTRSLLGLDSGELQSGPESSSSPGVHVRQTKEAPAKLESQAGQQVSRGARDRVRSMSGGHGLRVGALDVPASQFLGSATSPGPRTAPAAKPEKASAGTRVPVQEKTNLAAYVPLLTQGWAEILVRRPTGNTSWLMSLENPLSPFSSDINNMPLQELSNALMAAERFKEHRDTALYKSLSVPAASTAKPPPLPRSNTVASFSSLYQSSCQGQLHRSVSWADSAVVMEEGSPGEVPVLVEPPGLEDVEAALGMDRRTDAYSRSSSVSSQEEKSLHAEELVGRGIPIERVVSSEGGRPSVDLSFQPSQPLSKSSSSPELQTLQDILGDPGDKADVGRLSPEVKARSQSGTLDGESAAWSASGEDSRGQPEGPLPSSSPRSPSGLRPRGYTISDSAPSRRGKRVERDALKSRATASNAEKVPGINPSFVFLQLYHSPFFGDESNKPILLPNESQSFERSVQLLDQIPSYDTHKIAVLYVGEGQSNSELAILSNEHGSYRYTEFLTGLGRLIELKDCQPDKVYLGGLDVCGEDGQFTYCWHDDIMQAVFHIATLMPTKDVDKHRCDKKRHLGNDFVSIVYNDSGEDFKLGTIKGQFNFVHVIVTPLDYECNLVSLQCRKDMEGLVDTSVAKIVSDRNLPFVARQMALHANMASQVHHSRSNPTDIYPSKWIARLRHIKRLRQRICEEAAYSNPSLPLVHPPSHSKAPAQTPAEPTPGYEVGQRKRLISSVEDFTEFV
Nature of the experiment: pull-down from cell extract with 6XHis baits (FIG. 13).

Experiment [3] deals with T3, TSC2 “N” fragment (a.a. 2-935), HA-tagged (human, UniProt P49815 2-935).
T3 construct: also called HA-“N” fragment of TSC2; not shown: HA tag
T3 sequence (P49815 other isoform, or with tags, fused parts or gaps): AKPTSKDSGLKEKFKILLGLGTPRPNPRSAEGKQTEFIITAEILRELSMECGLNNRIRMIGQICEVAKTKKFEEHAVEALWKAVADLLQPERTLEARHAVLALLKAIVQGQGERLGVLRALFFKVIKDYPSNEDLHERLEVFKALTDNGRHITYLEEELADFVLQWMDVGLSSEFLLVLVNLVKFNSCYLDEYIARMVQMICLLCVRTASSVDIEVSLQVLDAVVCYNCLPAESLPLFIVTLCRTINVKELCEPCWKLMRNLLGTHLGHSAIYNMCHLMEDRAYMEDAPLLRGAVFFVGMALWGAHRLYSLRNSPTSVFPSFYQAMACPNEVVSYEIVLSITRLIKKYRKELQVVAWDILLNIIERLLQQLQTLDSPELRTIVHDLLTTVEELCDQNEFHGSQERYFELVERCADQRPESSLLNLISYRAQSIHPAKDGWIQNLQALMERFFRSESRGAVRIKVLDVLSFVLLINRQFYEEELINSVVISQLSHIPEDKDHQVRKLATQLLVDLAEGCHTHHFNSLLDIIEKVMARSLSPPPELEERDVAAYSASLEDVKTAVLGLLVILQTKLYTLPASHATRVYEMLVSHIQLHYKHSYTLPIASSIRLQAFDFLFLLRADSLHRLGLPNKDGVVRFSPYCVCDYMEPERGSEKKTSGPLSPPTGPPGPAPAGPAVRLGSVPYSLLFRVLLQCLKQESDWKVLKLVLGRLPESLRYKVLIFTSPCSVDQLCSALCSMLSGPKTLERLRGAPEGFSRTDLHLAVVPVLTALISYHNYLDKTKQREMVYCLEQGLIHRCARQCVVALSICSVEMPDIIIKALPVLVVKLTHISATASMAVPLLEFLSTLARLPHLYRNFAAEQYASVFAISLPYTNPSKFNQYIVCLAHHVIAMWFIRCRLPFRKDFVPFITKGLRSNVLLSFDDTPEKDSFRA
Kind of experiment: co-IP with anti-FLAG from 293T extract, anti-HA blot (FIG. 17).

Experiment [4] has as its target T2, TSC2. Nature of the experiment: co-IP from transfected 293T extract, immunoblot (FIG. 11).
Experiment [5] addresses T4, HA-tagged TSC2 (human, UniProt P49815 1-1807).
T4 construct: Expressed in 293T cells; used as cell extract; also called HA-TSC2; full length HA-tagged TSC2; not shown: HA tag
Nature of the experiment: co-IP with anti-FLAG from CoCl2-treated 293T cells (FIG. 25).

For experiment [6], the target named is T2, TSC2. Kind of experiment: summary of Example 6.

T4 sequence (P49815 other isoform, or with tags, fused parts or gaps limits assumed): as the sequence (P49815 other isoform, or with tags, fused parts or gaps limits assumed) above

B1: FLAG-(N-C2)hRTP801 (other)
chain: MPSLWDRFSSSSTSSSPSSLPRTPTPDRPPRSAWGSATREEGFDRSTSLESSDCESLDSSNSGFGPEEDTAYLDGVSLPDFELLSDPEDEHLCANLMQLLQESLAQARLGSRRPARLLMPSQLVSQVGKELLRLAYSEPCGLRGALLDVCVEQGKSCHSVGQLALDPSLVPTFQLTLVLRLDSRLWPKIQGLFSS
notes: also called hRTP801 N-C2 fragment; hRTP801 N-C2 mutant; not shown: FLAG tag
As to B1, the binding result in experiment [1] is recorded as “binds”.

B2: 6XHis hRTP801 N-fragment (other)
chain: MPSLWDRFSSSSTSSSPSSLPRTPTPDRPPRSAWGSATREEGFDRSTSLESSDCESLDSSNSGFGPEEDTAYLDGVSLPDFELLSDPE
notes: not shown: 6XHis tag
In the case of B2, the binding result in experiment [2] is “no binding”.

B3: FLAG-hRTP801 (other)
chain: T1 sequence
notes: Expressed by transient transfection in 293T cells; full length hRTP801 with FLAG tag; also called FLAG-full length hRTP801; FLAG-RTP801; not shown: FLAG tag
For B3, the binding result in experiment [3], in experiment [4] and in experiment [5] was “binds” throughout.

B4: hRTP801 (other)
chain: T1 sequence
notes: also called endogenous hRTP801; exogenous hRTP801
As to B4, in experiment [6], the binding result is reported as “binds”.
